This is an account of results in paper PMC8403554 (Cell, 2019).

B1: humanized 31A.v11 IgG4 anti-tryptase antibody (antibody, V domains shown)
VH: EVQLVESGGGLVQPGGSLRLSCAASGFTFSDYGMVWVRQAPGKGLEWVAFISSGSSTVYYADTMKGRFTISRDNSKNTLYLQMNSLRAEDTAVYYCTRRNYDDWYFDVWGQGTLVTVSS
VL: DIQMTQSPSSLSASVGDRVTITCSASSSVTYMYWYQQKPGKSPKPWIYRTSDLASGVPSRFSGSGSGTDFTLTISSLQPEDFATYYCQHYHSYPLTFGQGTKVEIK
B2: tetrameric βI-tryptase (insect cells) (enzyme)
chain: not shown
B3: soybean trypsin inhibitor (natural protein, UniProt P01070 25-205, looked up)
chain: DFVLDNEGNPLENGGTYYILSDITAFGGIRAAPTGNERCPLTVVQSRNELDKGIGTIISSPYRIRFIAEGHPLSLKFDSFAVIMLCVGIPTEWSVVEDLPEGPAVKIGENKDAMDGWFRLERVSDDEFNNYKLVFCPQQAEDDKCGDIGISIDHDDGTRRLVVSKNKPLVVQFQKLDKESL

The target of data set [1] is human βI-tryptase monomer (Homo sapiens, beta-I allele of TPSAB1, UniProt Q15661). Description: SPR. For orientation: SPR reads the build-up and loss of mass on a sensor chip optically.
Data set [2] deals with the molecule itself. Description: SEC. Background: SEC sorts molecules by how far they enter the pores of the column.
For data set [3], the target named is B2. As to the kind of experiment: crystal structure.

Chain of human βI-tryptase monomer (Q15661 31-275): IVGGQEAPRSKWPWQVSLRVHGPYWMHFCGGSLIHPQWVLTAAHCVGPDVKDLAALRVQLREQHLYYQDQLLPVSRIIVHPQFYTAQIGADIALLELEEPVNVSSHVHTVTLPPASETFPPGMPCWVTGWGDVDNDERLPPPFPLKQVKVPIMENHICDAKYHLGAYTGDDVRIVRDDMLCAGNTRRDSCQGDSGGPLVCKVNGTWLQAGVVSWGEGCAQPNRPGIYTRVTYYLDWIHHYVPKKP

B1: the “fold improvement in binding affinity (Kd) over the parental 31A clone” value in data set [1] was about 10 fold.
On to B2, for which the stoichiometry N (commonly the number of molecules, sites or subunits per partner or assembly) in data set [2] turned out to be 4.
B3: the binding result in data set [3] is reported as “binds”.
